Columns and labels:
YBX1 CSD = YBX1 CSD (human, UniProt P67809 48-159); assay: BLI
YBX3 CSD = YBX3 CSD (human, UniProt P16989 82-174); assay: BLI
Sequence of YBX3 CSD (P16989 82-174): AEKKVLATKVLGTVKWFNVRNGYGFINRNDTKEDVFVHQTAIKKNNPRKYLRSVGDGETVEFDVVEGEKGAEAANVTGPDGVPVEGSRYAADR

Sequence of YBX1 CSD (P67809 48-159): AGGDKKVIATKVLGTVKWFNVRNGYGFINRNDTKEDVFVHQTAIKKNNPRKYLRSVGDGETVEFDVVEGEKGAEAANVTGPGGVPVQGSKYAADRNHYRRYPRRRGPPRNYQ

**Q.** How did the Kd (YBX1 CSD) turn out when GGAGGCCACCUCUCCAAGGGCUUCU (structured_RNA, m5C at position 12 (NSUN6-methylated)) [FURIN-25nt-m5C] was run?
**A.** 0.214 µM

**Q.** What about the Kd (YBX3 CSD) of the same binder?
**A.** 0.045 µM

**Q.** GGAGGCCACCUCUCCAAGGGCUUCU (structured_RNA, none) [FURIN-25nt] was tested. Which Kd (YBX1 CSD) did it give?
**A.** 0.346 µM

**Q.** And the Kd (YBX3 CSD)?
**A.** 0.0875 µM

From PMC12227774
